Experiments:
[1] = molecular target: TbMscL Y87C, spin-labeled with MTSSL (Mycobacterium tuberculosis) (UniProt P9WJN5); test: SEC
[2] = molecular target: TbMscL K100R1-L89W (Mycobacterium tuberculosis) (UniProt P9WJN5); test: SEC
[3] = molecular target: TbMscL F79C, spin-labeled with MTSSL (Mycobacterium tuberculosis) (UniProt P9WJN5); test: SEC
[4] = molecular target: TbMscL N70R1-L89W (Mycobacterium tuberculosis) (UniProt P9WJN5); test: SEC
[5] = molecular target: TbMscL L73C, spin-labeled with MTSSL (Mycobacterium tuberculosis) (UniProt P9WJN5); test: SEC
[6] = molecular target: TbMscL L89C, spin-labeled with MTSSL (Mycobacterium tuberculosis) (UniProt P9WJN5); test: SEC
[7] = molecular target: TbMscL V48C, spin-labeled with MTSSL (Mycobacterium tuberculosis) (UniProt P9WJN5); test: SEC
[8] = molecular target: TbMscL E102C, spin-labeled with MTSSL (Mycobacterium tuberculosis) (UniProt P9WJN5); test: SEC
[9] = molecular target: TbMscL E102C, spin-labeled with MTSSL (Mycobacterium tuberculosis) (UniProt P9WJN5); test: SEC; samples thawed after PELDOR measurements and run over SEC
[10] = molecular target: TbMscL F5C, spin-labeled with MTSSL (Mycobacterium tuberculosis) (UniProt P9WJN5); test: SEC
[11] = molecular target: TbMscL A85C, spin-labeled with MTSSL (Mycobacterium tuberculosis) (UniProt P9WJN5); test: SEC
[12] = molecular target: TbMscL K99C, spin-labeled with MTSSL (Mycobacterium tuberculosis) (UniProt P9WJN5); test: SEC
[13] = molecular target: TbMscL F84C, spin-labeled with MTSSL (Mycobacterium tuberculosis) (UniProt P9WJN5); test: SEC
[14] = molecular target: TbMscL L72C, spin-labeled with MTSSL (Mycobacterium tuberculosis) (UniProt P9WJN5); test: SEC
[15] = molecular target: TbMscL F88C, spin-labeled with MTSSL (Mycobacterium tuberculosis) (UniProt P9WJN5); test: SEC
[16] = molecular target: TbMscL I23C, spin-labeled with MTSSL (Mycobacterium tuberculosis) (UniProt P9WJN5); test: SEC
[17] = molecular target: TbMscL L42C, spin-labeled with MTSSL (Mycobacterium tuberculosis) (UniProt P9WJN5); test: SEC
[18] = molecular target: TbMscL F34C, spin-labeled with MTSSL (Mycobacterium tuberculosis) (UniProt P9WJN5); test: SEC
[19] = molecular target: TbMscL R98C, spin-labeled with MTSSL (Mycobacterium tuberculosis) (UniProt P9WJN5); test: SEC
[20] = molecular target: TbMscL L73R1-L89W (Mycobacterium tuberculosis) (UniProt P9WJN5); test: SEC
[21] = molecular target: TbMscL L2C, spin-labeled with MTSSL (Mycobacterium tuberculosis) (UniProt P9WJN5); test: SEC
[22] = molecular target: TbMscL N70C, spin-labeled with MTSSL (Mycobacterium tuberculosis) (UniProt P9WJN5); test: SEC
[23] = molecular target: TbMscL K100R1-F88W (Mycobacterium tuberculosis) (UniProt P9WJN5); test: SEC
[24] = molecular target: TbMscL L72R1-L89W (Mycobacterium tuberculosis) (UniProt P9WJN5); test: SEC
[25] = molecular target: TbMscL L72R1-L89W (Mycobacterium tuberculosis) (UniProt P9WJN5); test: SEC; samples thawed after PELDOR measurements and run over SEC
[26] = molecular target: TbMscL K100C, spin-labeled with MTSSL (Mycobacterium tuberculosis) (UniProt P9WJN5); test: SEC
[27] = molecular target: TbMscL V112C, spin-labeled with MTSSL (Mycobacterium tuberculosis) (UniProt P9WJN5); test: SEC

TbMscL Y87C, spin-labeled with MTSSL (from UniProt P9WJN5 1-151) (natural protein)
stoichiometry N [1]: 5

TbMscL K100R1-L89W (from UniProt P9WJN5 1-151) (natural protein)
stoichiometry N [2]: 5

TbMscL F79C, spin-labeled with MTSSL (from UniProt P9WJN5 1-151) (natural protein)
stoichiometry N [3]: 5

TbMscL N70R1-L89W (from UniProt P9WJN5 1-151) (natural protein)
stoichiometry N [4]: 5

TbMscL L73C, spin-labeled with MTSSL (from UniProt P9WJN5 1-151) (natural protein)
stoichiometry N [5]: 5

TbMscL L89C, spin-labeled with MTSSL (from UniProt P9WJN5 1-151) (natural protein)
stoichiometry N [6]: 5

TbMscL V48C, spin-labeled with MTSSL (from UniProt P9WJN5 1-151) (natural protein)
stoichiometry N [7]: 5

TbMscL E102C, spin-labeled with MTSSL (from UniProt P9WJN5 1-151) (natural protein)
stoichiometry N [8]: 5 | stoichiometry N [9]: 5

TbMscL F5C, spin-labeled with MTSSL (from UniProt P9WJN5 1-151) (natural protein)
stoichiometry N [10]: 5

TbMscL A85C, spin-labeled with MTSSL (from UniProt P9WJN5 1-151) (natural protein)
stoichiometry N [11]: 5

TbMscL K99C, spin-labeled with MTSSL (from UniProt P9WJN5 1-151) (natural protein)
stoichiometry N [12]: 5

TbMscL F84C, spin-labeled with MTSSL (from UniProt P9WJN5 1-151) (natural protein)
stoichiometry N [13]: 5

TbMscL L72C, spin-labeled with MTSSL (from UniProt P9WJN5 1-151) (natural protein)
stoichiometry N [14]: 5

TbMscL F88C, spin-labeled with MTSSL (from UniProt P9WJN5 1-151) (natural protein)
stoichiometry N [15]: 5

TbMscL I23C, spin-labeled with MTSSL (from UniProt P9WJN5 1-151) (natural protein)
stoichiometry N [16]: 5

TbMscL L42C, spin-labeled with MTSSL (from UniProt P9WJN5 1-151) (natural protein)
stoichiometry N [17]: 5

TbMscL F34C, spin-labeled with MTSSL (from UniProt P9WJN5 1-151) (natural protein)
stoichiometry N [18]: 5

TbMscL R98C, spin-labeled with MTSSL (from UniProt P9WJN5 1-151) (natural protein)
stoichiometry N [19]: 5

TbMscL L73R1-L89W (from UniProt P9WJN5 1-151) (natural protein)
stoichiometry N [20]: 5

TbMscL L2C, spin-labeled with MTSSL (from UniProt P9WJN5 1-151) (natural protein)
stoichiometry N [21]: 5

TbMscL N70C, spin-labeled with MTSSL (from UniProt P9WJN5 1-151) (natural protein)
stoichiometry N [22]: 5

TbMscL K100R1-F88W (from UniProt P9WJN5 1-151) (natural protein)
stoichiometry N [23]: 5

TbMscL L72R1-L89W (from UniProt P9WJN5 1-151) (natural protein)
stoichiometry N [24]: 5 | stoichiometry N [25]: 5

TbMscL K100C, spin-labeled with MTSSL (from UniProt P9WJN5 1-151) (natural protein)
stoichiometry N [26]: 5

TbMscL V112C, spin-labeled with MTSSL (from UniProt P9WJN5 1-151) (natural protein)
stoichiometry N [27]: 5

— PMC6787021
